From patent publication EP4768503A1 (Keymed Biosciences (Chengdu) Co., Ltd., dated 2026)
Where a chain is given by its changes, count along the chain named. Where no end group is shown, it is not given here. [ ]: non-standard residue; d: D form. pGlu = O=C1CC[C@@H](C(=O)O)N1

What was measured:
pyroE Aβ3-42 peptide = target: T1, pyroE Aβ3-42 peptide (human, pyroglutamate derived from glutamic acid at the third amino acid position of Aβ (N-terminus of the peptide)); assay: graded binding, chimeric antibody (assay not named; ELISA in Example 1)
T1 construct: Synthetic peptide; It lacks the first two N-terminal residues of Aβ; also called pyroglutamate-modified β-amyloid

[1] = target: T2, pyroE Aβ3-16-biotin polypeptide (human, also: biotin, position not given here); assay: SPR (Biacore T200), biotinylated peptide on SA chip, antibody as analyte; antigen channel not given
T2 peptide: [pGlu]FRHDSGYEVHHQK

T1 sequence (peptide, as listed by the source): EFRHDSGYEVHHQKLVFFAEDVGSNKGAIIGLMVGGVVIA

B1: 174J17 (antibody, V domains shown)
VH: EVQLVESGGGLVKPGGSLKLSCAASGFTLSDYYMYWVRQTPEKRLEWVATISDGGRYTYYPDSVKGRFTISRDIAKNNLYIQMSSLRSEDTAMYYCARGRSTMITTTRNYLALDYWGQGTSVTVSS
VL: DIQMTQSSSSFSVSVGDRVTVTCKASEDIYNRLAWYQQRPGNAPRLLISGATSLETGVPSRFSGSGSGKDYILSITSLQTEDVGTYYCQQYWRTPLTFGEGTKLELK
notes: Chimeric antibody; the constant region of the chimeric form is not specified
pyroE Aβ3-42 peptide
  binding result: binds

B2: 192E15 (antibody, V domains shown)
VH: EVKLVESGGGLVQPGGSRKLSCAASGFTFSDYGMAWVRQAPGKGPEWVAFISNLAYSIYYADTVTGRFTISRQNAKNTLYLEMSSLRSEDTAMYYCARDRGYDGHSPYYAMDYWGQGTSVTVSS
VL: QAVVTQESALTTSPGETVTLTCRSSTGAVTTSNYANWVQEKPDHLFTGLIGGTSNRPPGVPARFSGSLIGDKAALTITGAQTEDEAIYFCALWYSHHWVFGGGTKLTVL
notes: as for B1
pyroE Aβ3-42 peptide
  binding result: binds

B3: 178D4 (antibody, V domains shown)
VH: QVQLQQSGAELVKPGASVKLSCKASGYTFTSYDLNWVRQRPEQGLEWIGWTFPGDGRTKYNEKFKGKATLTTDKSSSTAYMHLSRLTSEDSAVYFCVRWDYYGRSTGYFDVWGAGTTVTVSS
VL: QIVLTQSPAIMSASLGERVTMTCTASSSVSSSYLHWYQQRPGSSPKLWIYGTSNLASGVPARFSGSGSGTSYSLTISSMEAEDAATYYCHQYHRSPLTFGAGTKLELK
notes: as for B1
pyroE Aβ3-42 peptide
  binding result: binds

B4: 200O1 (antibody, V domains shown)
VH: QVQLKESGPGLVAPSQSLSITCTVSGFSLSRYIVHWYRQPPGKGLEWLGMIWGGGRIDYNSALKSRLSISKDNSKSQVFLKMNSLQTDDTAMYYCARNFGENAEAYWGQGTLVTVSA
VL: DIQMTQTTSSLSASLGDRVTITCRASQDINIYLNWYQQKPDGVVKLLIYYTSRLHSGVPSRFSGSGSGTDFSLTISNLEQEDIATYFCQQGHTLPYTFGGGTKLEIK
notes: Chimeric (parent) antibody; the constant region of the chimeric form is not specified; also called 20001
[1]
  Kd: 0.0716 pM
  koff: 5.44e-08 s⁻¹
  kon: 760000 M⁻¹ s⁻¹
pyroE Aβ3-42 peptide
  binding result: binds

B5: 175P19 (antibody, V domains shown)
VH: EVMLVESGRDLVKPGGSLRLSCAASGFTFSTYAMSWIRQTPEKRLEWVATITSAGTYTYYPDSVKGRFTISRDNAKNTLYLQMRSLRSEDTAMYYCVRHELITTVVSTDYFSMDYWGQGTSVTVSS
VL: DIVLTQSPASLAVSLGQRATISCRASESVEYYGTSLMQWYQQKPGQPPKLLIYAASNVESGVPARFSGSGSGTDFSLNIHPVEEDDVAMYFCQQSRKVPLTFGAGTKLELK
notes: as for B1
pyroE Aβ3-42 peptide
  binding result: binds

B6: 185O18 (antibody, V domains shown)
VH: B5 VH with R19K, S53N, A54Y
VL: B5 VL with Y31D
notes: Chimeric antibody; also called 185018
pyroE Aβ3-42 peptide
  binding result: binds

B7: 193D22 (antibody, V domains shown)
VH: EVKLVESGGGLVKPGGSLKLSCAASGFAFSSYDMSWVRQTPEKRLEWVATISNGGSYTYYPDSVKGRFSISRDNARNTLYLQMSSLRSEDTALYYCARHPLYYGNYGWWYFDVWGAGTTVTVSS
VL: DVVMTQTPLSLPVSLGDQASISCRSSQSLVYSNGNTYLYWYLQKPGQSPKLLIYKVSNRFSGVPDRFSGSGSGTDFTLKISRVEAEDLGVYFCSQSTHVPLTFGAGTKLELK
notes: as for B1
pyroE Aβ3-42 peptide
  binding result: binds

B8: 193M7 (antibody, V domains shown)
VH: B7 VH with N53S, G54R, S56T, S69T, D73N, W108Y
VL: B7 VL with Y31H, N33D, T36I
notes: as for B1
pyroE Aβ3-42 peptide
  binding result: binds

B9: 171P1 (antibody, V domains shown)
VH: QVQLEQPGAVSVRPGASVKLSCKASGYTFTSYWINWVKQRPGQGLEWIGNIYPSDSYTHYNQKFKDKATLTVDKSSTTAYMQISSPTSEDSAVYYCTREGTVVYWGQGTLLTVSA
VL: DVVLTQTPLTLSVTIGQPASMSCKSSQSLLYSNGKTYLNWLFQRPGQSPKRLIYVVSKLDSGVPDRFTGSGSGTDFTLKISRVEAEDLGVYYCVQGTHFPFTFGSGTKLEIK
notes: as for B1
pyroE Aβ3-42 peptide
  binding result: binds
